Experimental data published in PMC8376252.

Tests used:
Test in all cases: BLI; Octet RED; antibody (IgG, 10 µg/mL) immobilised on anti-human IgG Fc capture biosensors; antigen as analyte, six twofold dilutions from 2 µM (gp120 monomers) or 500 nM (BG505.SOSIP.664 trimer); 1X PBS, 0.1% BSA, 0.005% Tween-20, 0.02% sodium azide; 23°C; association 180 s, dissociation 180 s; double reference subtraction; global 1:1 fit
[1] = biological target: mature heavy chain paired with Int5∆FWR2-FWR3VL (human)
[2] = biological target: ∆CDR1VH heavy chain chimera paired with the mature light chain (human)
∆CDR1VH heavy chain chimera paired with the mature light chain (human), sequence (light, as listed by the source): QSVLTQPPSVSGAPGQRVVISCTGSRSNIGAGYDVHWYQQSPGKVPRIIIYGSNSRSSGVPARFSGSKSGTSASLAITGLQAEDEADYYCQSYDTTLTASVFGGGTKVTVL

[3] = biological target: mature heavy chain paired with the inferred naive light chain (matVH 0VL) (human)
mature heavy chain paired with the inferred naive light chain (matVH 0VL) (human), sequence (heavy, as listed by the source): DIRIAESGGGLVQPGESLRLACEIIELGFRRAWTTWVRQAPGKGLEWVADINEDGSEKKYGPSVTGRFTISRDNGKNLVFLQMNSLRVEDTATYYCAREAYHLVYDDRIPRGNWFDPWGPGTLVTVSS

mature heavy chain paired with Int5∆FWR2-FWR3VL (human), sequence (heavy, as listed by the source): as above

Q: For “BG505.SOSIP.664 trimer (from UniProt Q2N0S6 1-860; Q2N0S6 1-860) (complex)”, which Kd [1] is on record?
A: The Kd was 1300 nM.

Q: What about the Kd [2] of the same substance?
A: Its Kd is 40.6 nM.

Q: And the Kd [3]?
A: Its Kd is 89.6 nM.
